From patent US20130345135A1 (WISCONSIN ALUMNI RESEARCH FOUNDATION, published 2013)

Target: myosin in murine skinned myocardium (principal isoform alpha-cardiac myosin) (mouse, UniProt Q02566 1-1938)
Assay: cell-based or functional assay

Sequence of myosin in murine skinned myocardium (principal isoform alpha-cardiac myosin) (Q02566 whole entry, canonical isoform): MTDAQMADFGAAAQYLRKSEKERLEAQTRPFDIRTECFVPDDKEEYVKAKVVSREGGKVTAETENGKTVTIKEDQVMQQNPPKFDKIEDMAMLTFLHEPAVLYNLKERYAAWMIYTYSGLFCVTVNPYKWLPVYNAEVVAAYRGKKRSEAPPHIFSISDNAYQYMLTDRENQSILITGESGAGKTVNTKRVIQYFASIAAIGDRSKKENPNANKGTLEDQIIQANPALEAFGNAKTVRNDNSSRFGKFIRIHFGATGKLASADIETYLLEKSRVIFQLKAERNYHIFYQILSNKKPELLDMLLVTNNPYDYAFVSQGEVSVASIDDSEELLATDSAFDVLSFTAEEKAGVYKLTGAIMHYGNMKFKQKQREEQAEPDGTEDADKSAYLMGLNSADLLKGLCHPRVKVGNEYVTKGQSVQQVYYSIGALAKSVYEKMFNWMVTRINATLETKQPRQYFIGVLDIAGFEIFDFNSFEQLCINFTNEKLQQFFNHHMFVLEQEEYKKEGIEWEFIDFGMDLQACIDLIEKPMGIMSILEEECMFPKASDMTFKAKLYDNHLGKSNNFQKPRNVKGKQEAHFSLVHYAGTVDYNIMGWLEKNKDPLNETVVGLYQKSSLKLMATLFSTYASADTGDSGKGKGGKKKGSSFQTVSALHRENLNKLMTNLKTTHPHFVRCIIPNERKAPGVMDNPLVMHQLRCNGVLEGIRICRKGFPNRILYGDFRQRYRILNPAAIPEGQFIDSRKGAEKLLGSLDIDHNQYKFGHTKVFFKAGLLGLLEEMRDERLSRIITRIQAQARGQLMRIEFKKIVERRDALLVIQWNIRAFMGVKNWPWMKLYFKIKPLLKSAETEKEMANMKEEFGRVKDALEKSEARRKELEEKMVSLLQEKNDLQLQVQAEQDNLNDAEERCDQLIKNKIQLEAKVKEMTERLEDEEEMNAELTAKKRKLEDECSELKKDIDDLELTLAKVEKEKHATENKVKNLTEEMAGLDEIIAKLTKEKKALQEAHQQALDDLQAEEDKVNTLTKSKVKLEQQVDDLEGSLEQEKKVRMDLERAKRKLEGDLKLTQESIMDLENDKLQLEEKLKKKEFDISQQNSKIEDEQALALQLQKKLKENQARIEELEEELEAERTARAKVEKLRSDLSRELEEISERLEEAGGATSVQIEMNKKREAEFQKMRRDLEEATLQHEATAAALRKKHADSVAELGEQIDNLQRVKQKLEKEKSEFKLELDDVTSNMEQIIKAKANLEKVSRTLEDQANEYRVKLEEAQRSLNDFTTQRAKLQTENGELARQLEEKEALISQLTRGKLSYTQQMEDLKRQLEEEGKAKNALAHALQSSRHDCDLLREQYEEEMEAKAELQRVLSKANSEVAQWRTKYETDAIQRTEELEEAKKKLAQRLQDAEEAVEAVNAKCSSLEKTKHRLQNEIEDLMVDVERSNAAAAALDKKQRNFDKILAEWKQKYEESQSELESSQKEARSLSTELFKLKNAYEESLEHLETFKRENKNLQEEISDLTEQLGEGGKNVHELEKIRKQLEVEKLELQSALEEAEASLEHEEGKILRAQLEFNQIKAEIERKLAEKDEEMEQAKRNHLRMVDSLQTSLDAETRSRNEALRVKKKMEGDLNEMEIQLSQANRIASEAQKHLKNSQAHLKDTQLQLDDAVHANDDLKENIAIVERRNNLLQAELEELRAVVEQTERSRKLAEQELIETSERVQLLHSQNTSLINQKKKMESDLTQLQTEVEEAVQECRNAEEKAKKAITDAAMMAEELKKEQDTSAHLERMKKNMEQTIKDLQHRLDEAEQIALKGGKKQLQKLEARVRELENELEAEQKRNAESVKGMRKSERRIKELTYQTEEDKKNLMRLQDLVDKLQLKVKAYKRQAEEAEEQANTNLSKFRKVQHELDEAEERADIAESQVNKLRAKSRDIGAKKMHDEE

FSSLLKKRDAFRRDAKLE [peptide 302A]
force at intermediate pCa (scaled to force at pCa 4.5), mouse, 50 uM peptide, fold of control: ~2 x control | force at pCa 5.9 (scaled to force at pCa 4.5), mouse, 50 uM peptide, fold of untreated: ~3 x (fold of untreated force)
